The values that follow come from US6797522B1, “Synthetic receptors” (The Trustees of Columbia University in the City of New York, priority 1996, dated 2004).

One assay concerns the target T1, Leu Enkephalin (Homo sapiens, UniProt P01210).
T1 construct: composed of two pentapeptides Tyr-Gly-Gly-Phe-LeuOH and Tyr-Gly-Gly-Phe-MetOH; purchased Bachem, Inc
Briefly: Color screening assay of bead-bound receptor libraries with Disperse Red-labelled substrate. The format is binding. Conditions: Table 5, label = AA1-AA5. The protocol: (§1) The synthetic receptor library is then assayed to find those members of the library which have the desired interaction with the labeled substrate. In the case where the desired interaction is binding to the substrate, the synthetic receptor library is mixed with a solution of the labeled substrate and those library members that bind to the labeled substrate are selected. This procedure is particularly simple when the synthetic receptor library members are bound to a solid support as shown in Scheme 2. In that case, solid support particles having receptors which bind the labeled substrate accumulate color or fluorescence or radioactivity (depending on the nature of the label used). Depending on the concentration of the labeled substrate used, the assay can be adjusted to detect binding of any desired strength: for example, if the amount of labeled substrate in the presence of the receptor library is adjusted to give a 100 μM concentration of free (unbound) labeled substrate, then assay will only detect template-substrate binding with association constants (k) of (100 μM)^−1 or greater.
(§2) A color assay method was developed for screening receptor library beads. The color dye used is Disperse Red 1 (available from Aldrich Inc.), a neutral diazo dye whose λmax is at 502 nm. Red color in various organic solvents is visible at concentration as low as 100 μM.
(§3) After receptor beads are treated with a substrate which has a color dye attached on it, the bead binding the substrate is stained and can be easily identified in a background of many colorless beads. The stained bead is the removed from the library by a microsyringe, and subjected to decode to identify its structure. The decoding process involves three operations: a) photolysis of the beads, b) silylation of liberated alcohols, c) injection into GC-EC machine. Once identified, the receptor is then resynthesized on large quantities of beads for confirmatory binding studies. […] From this spectrum, the structure of the receptor is identified as C3—OGLY-leu-phe-Ac, C7—OGLY-ala-Lys-Ac.
(§4) Some additional binding studies for Peptidosteroidal receptors with beta-Casomorphinamide and Des-Tyr Leu Enkahphalin, are shown in the following table 5 and are compared to the Leu Enkaphalin and Met Enkaphalin. [drawing 47]

The target in the next assay is T2, Met Enkephalin (Homo sapiens, UniProt P01210).
T2 construct: composed of two pentapeptides Tyr-Gly-Gly-Phe-LeuOH and Tyr-Gly-Gly-Phe-MetOH; purchased Bachem, Inc
The description is as above. In kind it is binding. Particulars: Table 5, label = AA1-AA5; for Kd: read-out: KD-MAX; for BOUND: percentage of library beads bound. The protocol: as §1, §2, §3, §4

Take “GLY-ASP-PRO-PRO-LEU (GDPPL; printed: GLY-ASP-PRO-PRO-LEU)”: the dissociation constant Kd with Leu Enkephalin (read-out: KD-MAX) was found to be 81 µM. In the assay with Leu Enkephalin (percentage of library beads bound), this substance displayed a BOUND of 0.7%.

With “GLY-PHE-PRO-PRO-LEU (GFPPL; printed: GLY-PHE-PRO-PRO-LEU)”, in the assay with Met Enkephalin, the Kd worked out at 85 µM and the BOUND turned out to be 0.5%.

With “PRO-THR-LYS-PHE-ALA (PTKFA; printed: PRO-THR-LYS-PHE-ALA)”, in the assay with Met Enkephalin, the Kd turned out to be 75 µM and the BOUND came to 0.8%.
